# Results reported in the Human Domainome abundance scans (Beltran et al. 2025).
# ± gives the uncertainty stated by the source.
# B1: Homeobox protein SIX6, residues 134 to 184; numbered along this chain, O95475 (parent)
# chain: CFKERTRHLLREWYLQDPYPNPSKKRELAQATGLTPTQVGNWFKNRRQRDR
# Variants of: B1
# Test: abundance fitness (aPCA) (normalised: wild type 0, dead -1); higher = more abundant; growth selection in yeast, the domain comes from the species named
# Conditions: Homo sapiens
row,Variant,abundance fitness
1,CFKERTRHLLREWYLQDPYPNPSKKRELAQATGHTPTQVGNWFKNRRQRDR,-0.896 ± 0.066
2,CFKERTRHLLREWYLQDPYPNPSKKRELAQATGWTPTQVGNWFKNRRQRDR,-0.548 ± 0.13
3,CFKERTRHLLREWYLQDPYPNPSKKRELAQATGKTPTQVGNWFKNRRQRDR,-0.722 ± 0.095
4,CFKERTRHLLREWYLQDPYPNPSKKRELAQATGDTPTQVGNWFKNRRQRDR,-0.936 ± 0.087
5,CFKERTRHLLREWYLQDPYPNPSKKRELAQATGCTPTQVGNWFKNRRQRDR,-0.806 ± 0.081
6,CFKERTRHLLREWYLQDPYPNPSKKRELAQATGETPTQVGNWFKNRRQRDR,-0.624 ± 0.18
7,CFKERTRHLLREWYLQDPYPNPSKKRELAQATGPTPTQVGNWFKNRRQRDR,-0.747 ± 0.072
8,CFKERTRHLLREWYLQDPYPNPSKKRELAQATNLTPTQVGNWFKNRRQRDR,-0.499 ± 0.082
9,CFKERTRHLLREWYLQDPYPNPSKKRELAQATLLTPTQVGNWFKNRRQRDR,-0.735 ± 0.059
10,CFKERTRHLLREWYLQDPYPNPSKKRELAQATPLTPTQVGNWFKNRRQRDR,-0.848 ± 0.061
11,CFKERTRHLLREWYLQDPYPNPSKKRELAQATILTPTQVGNWFKNRRQRDR,-0.936 ± 0.32
12,CFKERTRHLLREWYLQDPYPNPSKKRELAQATRLTPTQVGNWFKNRRQRDR,-0.738 ± 0.051
13,CFKERTRHLLREWYLQDPYPNPSKKRELAQATHLTPTQVGNWFKNRRQRDR,-0.61 ± 0.066
14,CFKERTRHLLREWYLQDPYPNPSKKRELAQATTLTPTQVGNWFKNRRQRDR,-0.727 ± 0.1
15,CFKERTRHLLREWYLQDPYPNPSKKRELAQATMLTPTQVGNWFKNRRQRDR,-0.555 ± 0.11
16,CFKERTRHLLREWYLQDPYPNPSKKRELAQATELTPTQVGNWFKNRRQRDR,-0.722 ± 0.09
17,CFKERTRHLLREWYLQDPYPNPSKKRELAQATDLTPTQVGNWFKNRRQRDR,-0.629 ± 0.14
18,CFKERTRHLLREWYLQDPYPNPSKKRELAQATFLTPTQVGNWFKNRRQRDR,-0.946 ± 0.14
19,CFKERTRHLLREWYLQDPYPNPSKKRELAQATWLTPTQVGNWFKNRRQRDR,-0.853 ± 0.065
20,CFKERTRHLLREWYLQDPYPNPSKKRELAQATKLTPTQVGNWFKNRRQRDR,-0.679 ± 0.072
21,CFKERTRHLLREWYLQDPYPNPSKKRELAQATCLTPTQVGNWFKNRRQRDR,-0.757 ± 0.081
22,CFKERTRHLLREWYLQDPYPNPSKKRELAQATSLTPTQVGNWFKNRRQRDR,-0.598 ± 0.065
23,CFKERTRHLLREWYLQDPYPNPSKKRELAQATQLTPTQVGNWFKNRRQRDR,-0.514 ± 0.049
24,CFKERTRHLLREWYLQDPYPNPSKKRELAQATALTPTQVGNWFKNRRQRDR,-0.712 ± 0.059
25,CFKERTRHLLREWYLQDPYPNPSKKRELAQATYLTPTQVGNWFKNRRQRDR,-0.741 ± 0.19
26,CFKERTRHLLREWYLQDPYPNPSKKRELAQATGLQPTQVGNWFKNRRQRDR,-0.809 ± 0.12

row,Variant,abundance fitness
1,CFKERTRHLLREWYLQDPYPNPSKKRELAQATGLWPTQVGNWFKNRRQRDR,-0.822 ± 0.056
2,CFKERTRHLLREWYLQDPYPNPSKKRELAQATGLIPTQVGNWFKNRRQRDR,-0.885 ± 0.1
3,CFKERTRHLLREWYLQDPYPNPSKKRELAQATGLYPTQVGNWFKNRRQRDR,-0.953 ± 0.079
4,CFKERTRHLLREWYLQDPYPNPSKKRELAQATGLCPTQVGNWFKNRRQRDR,-0.979 ± 0.18
5,CFKERTRHLLREWYLQDPYPNPSKKRELAQATGLMPTQVGNWFKNRRQRDR,-0.703 ± 0.066
6,CFKERTRHLLREWYLQDPYPNPSKKRELAQATGLAPTQVGNWFKNRRQRDR,-0.846 ± 0.077
7,CFKERTRHLLREWYLQDPYPNPSKKRELAQATGLEPTQVGNWFKNRRQRDR,-0.399 ± 0.072
8,CFKERTRHLLREWYLQDPYPNPSKKRELAQATGLRPTQVGNWFKNRRQRDR,-0.813 ± 0.066
9,CFKERTRHLLREWYLQDPYPNPSKKRELAQATGLLPTQVGNWFKNRRQRDR,-0.733 ± 0.075
10,CFKERTRHLLREWYLQDPYPNPSKKRELAQATGLFPTQVGNWFKNRRQRDR,-0.773 ± 0.069
11,CFKERTRHLLREWYLQDPYPNPSKKRELAQATGLDPTQVGNWFKNRRQRDR,-0.663 ± 0.13
12,CFKERTRHLLREWYLQDPYPNPSKKRELAQATGLNPTQVGNWFKNRRQRDR,-0.581 ± 0.064
13,CFKERTRHLLREWYLQDPYPNPSKKRELAQATGLPPTQVGNWFKNRRQRDR,-0.877 ± 0.071
14,CFKERTRHLLREWYLQDPYPNPSKKRELAQATGLHPTQVGNWFKNRRQRDR,-0.749 ± 0.083
15,CFKERTRHLLREWYLQDPYPNPSKKRELAQATGLGPTQVGNWFKNRRQRDR,-0.886 ± 0.1
16,CFKERTRHLLREWYLQDPYPNPSKKRELAQATGLSPTQVGNWFKNRRQRDR,-0.128 ± 0.043
17,CFKERTRHLLREWYLQDPYPNPSKKRELAQNTGLTPTQVGNWFKNRRQRDR,-0.098 ± 0.1
18,CFKERTRHLLREWYLQDPYPNPSKKRELAQSTGLTPTQVGNWFKNRRQRDR,-0.292 ± 0.081
19,CFKERTRHLLREWYLQDPYPNPSKKRELAQPTGLTPTQVGNWFKNRRQRDR,-0.782 ± 0.23
20,CFKERTRHLLREWYLQDPYPNPSKKRELAQRTGLTPTQVGNWFKNRRQRDR,-0.185 ± 0.06
21,CFKERTRHLLREWYLQDPYPNPSKKRELAQQTGLTPTQVGNWFKNRRQRDR,-0.001 ± 0.09
22,CFKERTRHLLREWYLQDPYPNPSKKRELAQVTGLTPTQVGNWFKNRRQRDR,-0.151 ± 0.066
23,CFKERTRHLLREWYLQDPYPNPSKKRELAQWTGLTPTQVGNWFKNRRQRDR,-0.494 ± 0.11
24,CFKERTRHLLREWYLQDPYPNPSKKRELAQTTGLTPTQVGNWFKNRRQRDR,-0.045 ± 0.094
25,CFKERTRHLLREWYLQDPYPNPSKKRELAQYTGLTPTQVGNWFKNRRQRDR,-0.36 ± 0.15
